No end group written: not given here.
Molecular target: T1, rat NMUR1-ATG (rat, UniProt Q9JJI5 1-425)
T1 sequence (looked up): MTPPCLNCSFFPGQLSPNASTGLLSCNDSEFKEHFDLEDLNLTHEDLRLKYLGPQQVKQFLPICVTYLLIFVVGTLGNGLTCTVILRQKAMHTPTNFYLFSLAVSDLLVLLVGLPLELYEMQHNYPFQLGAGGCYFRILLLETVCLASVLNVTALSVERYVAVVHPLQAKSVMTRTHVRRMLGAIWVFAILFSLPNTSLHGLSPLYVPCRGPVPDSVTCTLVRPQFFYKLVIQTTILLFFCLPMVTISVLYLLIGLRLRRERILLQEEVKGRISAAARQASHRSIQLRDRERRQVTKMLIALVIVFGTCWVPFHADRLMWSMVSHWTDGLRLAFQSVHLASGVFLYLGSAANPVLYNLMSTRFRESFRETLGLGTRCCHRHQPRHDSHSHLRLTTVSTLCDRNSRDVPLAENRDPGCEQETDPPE
Experiment: cell-based or functional assay

## FRVDEEFQSPFASQSRGYFLFRPRN-NH2 (also called hNMU-25; native hNMU) [human NMU-25]
  IC50 (nM), functional: 1.3 nM
